biological target: T1, recombinant human TIGIT (human, UniProt Q495A1 22-141, limits assumed); test: SPR Carterra, average
T1 construct: recombinant human TIGIT used in Carterra SPR; also called hTIGIT
T1 sequence (looked up): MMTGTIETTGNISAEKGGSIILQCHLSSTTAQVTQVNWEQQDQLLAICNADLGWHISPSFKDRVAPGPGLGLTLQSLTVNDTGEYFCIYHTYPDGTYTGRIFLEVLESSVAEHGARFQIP
Procedure: Binding affinities of VHH-Fc proteins to recombinant human TIGIT were measured by SPR using a Carterra instrument (Table 10A). […] Average values reported from measurements from 1-2 samples.

Binder | Kd [nM] | koff [s⁻¹] | kon [M⁻¹ s⁻¹]
TIGIT-SC19 (Fc fusion, VHH-Fc fusion in assay) VHH: EVQLVESGGGLVQPGGSLRLSCAASGRTYDAMGWFRQAPGKEREWVASVLRGGYTWYADSVKGRFTISADNSKNTAYLQMNSLKPEDTAVYYCARDVDYRFDSWGQGTLVTVSS | 1.07 | 0.0012 | 1.12e+06
TIGIT-SC24 (Fc fusion, VHH-Fc fusion in assay) VHH: EVQLVESGGGLVQPGGSLRLSCAASGFTFDRSWMGWFRQAPGKEREVVASITSGGSTYYADSVKGRFTISADNSKNTAYLQMNSLKPEDTAVYYCAADVWYGSTWRNWGQGTLVTVSS | 3.08 | 0.000894 | 506000
TIGIT-SC84 (Fc fusion, VHH-Fc fusion in assay) VHH: EVQLVESGGGLVQPGGSLRLSCAASGGTFTIYPMGWFRQAPGKEREWVAGINEYGGRYADSVKGRFTISADNSKNTAYLQMNSLKPEDTAVYYCARDLNAMGDAYDIWGQGTLVTVSS | ≤ 3.15 | ≤ 1e-05 | 3180
TIGIT-SC107 (Fc fusion, VHH-Fc fusion in assay) VHH: EVQLVESGGGLVQPGGSLRLSCAASGFAFSSDWMGWFRQAPGKEREGVAWIARYDGSTLYADSVKGRFTISADNSKNTAYLQMNSLKPEDTAVYYCAKDLDSSGRFFQHWGQGTLVTVSS | 0.693 | 0.000148 | 213000
TIGIT-SC113 (Fc fusion, VHH-Fc fusion in assay) VHH: EVQLVESGGGLVQPGGSLRLSCAASGFTLNDYAMGWFRQAPGKERELVAWIARYDGSTLYADSVKGRFTISADNSKNTAYLQMNSLKPEDTAVYYCTWGDGYNLGAFDIWGQGTLVTVSS | 1.88 | 0.000483 | 257000
TIGIT-SC112 (Fc fusion, VHH-Fc fusion in assay) VHH: EVQLVESGGGLVQPGGSLRLSCAASGRTLRRYVMGWFRQAPGKERELVAAIDWSGGSALYADSVKGRFTISADNSKNTAYLQMNSLKPEDTAVYYCTWGDGYNLGAFDIWGQGTLVTVSS | 13.2 | 0.00393 | 297000
TIGIT-SC169 (Fc fusion, VHH-Fc fusion in assay) VHH: EVQLVESGGGLVQPGGSLRLSCAASGFTLNDYAMGWFRQAPGKERELVAWIARYDGSTLYADSVKGRFTISADNSKNTAYLQMNSLKPEDTAVYYCTTELRWELQQPDYWGQGTLVTVSS | 978 | 0.206 | 211000
TIGIT-SC48 (Fc fusion, VHH-Fc fusion in assay) VHH: EVQLVESGGGLVQPGGSLRLSCAASGRTSDIYGMGWFRQAPGKEREAVASIWRSGGNTYYADSVKGRFTISADNSKNTAYLQMNSLKPEDTAVYYCASSTLDVWGQGTLVTVSS | 0.713 | 0.00551 | 7.72e+06
TIGIT-SC20 (Fc fusion, VHH-Fc fusion in assay) VHH: EVQLVESGGGLVQPGGSLRLSCAASGNTFSGGFMGWFRQAPGKEREWVASVLRGGYTWYADSVKGRFTISADNSKNTAYLQMNSLKPEDTAVYYCATPRGYWGQGTLVTVSS | 2.7 | 0.0007 | 260000
TIGIT-SC1 (Fc fusion, VHH-Fc fusion in assay) VHH: EVQLVESGGGLVQPGGSLRLSCAASGFTLNDYAMGWFRQAPGKERELVAWIARYDGSTLYADSVKGRFTISADNSKNTAYLQMNSLKPEDTAVYYCARVDWALNAAPFDYWGQGTLVTVSS | 0.467 | 0.000165 | 246000
TIGIT-SC78 (Fc fusion, VHH-Fc fusion in assay) VHH: EVQLVESGGGLVQPGGSLRLSCAASGLTLNDYAMGWFRQAPGKERELVAWIARYDGSTLYADSVKGRFTISADNSKNTAYLQMNSLKPEDTAVYYCARVDWALNAAPFDYWGQGTLVTVSS | 2.02 | 0.000493 | 244000
TIGIT-SC134 (Fc fusion, VHH-Fc fusion in assay) VHH: EVQLVESGGGLVQPGGSLRLSCAASGFTLENNMMGWFRQAPGKEREFVAAISASGTLRAYADSVKGRFTISADNSKNTAYLQMNSLKPEDTAVYYCARWYRVNNWSPGYYYYMDVWGQGTLVTVSS | 1.47 | 8.98e-05 | 60900
TIGIT-SC13 (Fc fusion, VHH-Fc fusion in assay) VHH: EVQLVESGGGLVQPGGSLRLSCAASGRTFSFMGWFRQAPGKEREWVASVLRGGYTWYADSVKGRFTISADNSKNTAYLQMNSLKPEDTAVYYCATESMDYWGQGTLVTVSS | 3.08 | 0.000199 | 60100
TIGIT-SC61 (Fc fusion, VHH-Fc fusion in assay) VHH: EVQLVESGGGLVQPGGSLRLSCAASGNTFSGGFMGWFRQAPGKEREWVASVLRGGYTWYADSVKGRFTISADNSKNTAYLQMNSLKPEDTAVYYCTRGDTAMATFDYWGQGTLVTVSS | 59.2 | 0.0037 | 63000
TIGIT-SC197 (Fc fusion, VHH-Fc fusion in assay) VHH: EVQLVESGGGLVQPGGSLRLSCAASGFTFDRSWMGWFRQAPGKEREWVASVLRGGYTWYADSVKGRFTISADNSKNTAYLQMNSLKPEDTAVYYCAREGRTAGWFDPWGQGTLVTVSS | 9.35 | 0.00156 | 168000
TIGIT-SC175 (Fc fusion, VHH-Fc fusion in assay) VHH: EVQLVESGGGLVQPGGSLRLSCAASGNTFSGGFMGWFRQAPGKEREWVASVLRGGYTWYADSVKGRFTISADNSKNTAYLQMNSLKPEDTAVYYCTTDALRFLEWPWWGQGTLVTVSS | 14.4 | 0.00124 | 101000
TIGIT-SC160 (Fc fusion, VHH-Fc fusion in assay) VHH: EVQLVESGGGLVQPGGSLRLSCAASGNTFSGGFMGWFRQAPGKEREWVASVLRGGYTWYADSVKGRFTISADNSKNTAYLQMNSLKPEDTAVYYCAREGRSSSPWFDPWGQGTLVTVSS | 31.6 | 0.00265 | 105000
TIGIT-SC110 (Fc fusion, VHH-Fc fusion in assay) VHH: EVQLVESGGGLVQPGGSLRLSCAASGNTFSGGFMGWFRQAPGKEREWVASVLRGGYTWYADSVKGRFTISADNSKNTAYLQMNSLKPEDTAVYYCARDHTAMVAPFDYWGQGTLVTVSS | 1.44 | 0.000765 | 531000
TIGIT-SC159 (Fc fusion, VHH-Fc fusion in assay) VHH: EVQLVESGGGLVQPGGSLRLSCAASGFTFDRSWMGWFRQAPGKEREWVASVLRGGYTWYADSVKGRFTISADNSKNTAYLQMNSLKPEDTAVYYCAREGRSSSPWFDPWGQGTLVTVSS | 14.6 | 0.00144 | 92000
TIGIT-SC158 (Fc fusion, VHH-Fc fusion in assay) VHH: EVQLVESGGGLVQPGGSLRLSCAASGFTFSPSWMGWFRQAPGKEREWVASVLRGGYTWYADSVKGRFTISADNSKNTAYLQMNSLKPEDTAVYYCAREGRSSSPWFDPWGQGTLVTVSS | 143 | 0.00154 | 18200
TIGIT-SC6 (Fc fusion, VHH-Fc fusion in assay) VHH: EVQLVESGGGLVQPGGSLRLSCAASGNTFSGGFMGWFRQAPGKEREWVASVLRGGYTWYADSVKGRFTISADNSKNTAYLQMNSLKPEDTAVYYCAISPVAWHAKFDSWGQGTLVTVSS | 19.4 | 0.00129 | 66700
TIGIT-SC114 (Fc fusion, VHH-Fc fusion in assay) VHH: EVQLVESGGGLVQPGGSLRLSCAASGNTFSGGFMGWFRQAPGKEREWVASVLRGGYTWYADSVKGRFTISADNSKNTAYLQMNSLKPEDTAVYYCATVGGRQRTLFDDWGQGTLVTVSS | 45.2 | 0.00227 | 50700
TIGIT-SC155 (Fc fusion, VHH-Fc fusion in assay) VHH: EVQLVESGGGLVQPGGSLRLSCAASGNTFSGGFMGWFRQAPGKEREWVASVLRGGYTWYADSVKGRFTISADNSKNTAYLQMNSLKPEDTAVYYCAGDYRGFEMAFDPWGQGTLVTVSS | 126 | 0.00647 | 51300
TIGIT-SC97 (Fc fusion, VHH-Fc fusion in assay) VHH: EVQLVESGGGLVQPGGSLRLSCAASGTAASFNPMGWFRQAPGKEREFVAAISWSGGSTNYADSVKGRFTISADNSKNTAYLQMNSLKPEDTAVYYCVTYSAYDFRNAWGQGTLVTVSS | 0.447 | 0.000231 | 942000
TIGIT-SC95 (Fc fusion, VHH-Fc fusion in assay) VHH: EVQLVESGGGLVQPGGSLRLSCAASGPTFSTNVMGWFRQAPGKEREFVSSIHWGGSSTVYADSVKGRFTISADNSKNTAYLQMNSLKPEDTAVYYCVTYSAYDFRNAWGQGTLVTVSS | 2.55 | 0.00352 | 1.38e+06
TIGIT-SC117 (Fc fusion, VHH-Fc fusion in assay) VHH: EVQLVESGGGLVQPGGSLRLSCAASGNTFSGGFMGWFRQAPGKEREWVASVLRGGYTWYADSVKGRFTISADNSKNTAYLQMNSLKPEDTAVYYCDAADYWGQGTLVTVSS | 9.63 | 0.0012 | 125000
TIGIT-SC57 (Fc fusion, VHH-Fc fusion in assay) VHH: EVQLVESGGGLVQPGGSLRLSCAASGNTFSGGFMGWFRQAPGKEREWVASVLRGGYTWYADSVKGRFTISADNSKNTAYLQMNSLKPEDTAVYYCTTYRGWGQGTLVTVSS | 25.2 | 0.00511 | 149000
TIGIT-SC38 (Fc fusion, VHH-Fc fusion in assay) VHH: EVQLVESGGGLVQPGGSLRLSCAASGFTFSEYPMGWFRQAPGKEREFVAVVNWNGDSTYYADSVKGRFTISADNSKNTAYLQMNSLKPEDTAVYYCARGSDWYRYWGQGTLVTVSS | 0.505 | 0.000237 | 469000
TIGIT-SC54 (Fc fusion, VHH-Fc fusion in assay) VHH: EVQLVESGGGLVQPGGSLRLSCAASGFSFDDYVMGWFRQAPGKERELVAVIVGEAITRYADSVKGRFTISADNSKNTAYLQMNSLKPEDTAVYYCARRGGSGRAFDIWGQGTLVTVSS | 3.71 | 0.00982 | 3e+06

From patent US20260184782A1 (TWIST BIOSCIENCE, published 2026)
